The results in this text go back to paper PMC7409020, “Tumor-Targeting Peptides: The Functional Screen of Glioblastoma Homing Peptides to the Target Protein FABP3 (MDGI)” (Cancers, 2020).

As a reminder, the Kd is the concentration at which binding is half-saturated.

The target in this assay is A-CooP. As to the kind of experiment: SPR; Biacore T100; A-CooP immobilised on a CM5 chip (FC-4) by amine coupling, scrambled control peptide on the reference flow cell (FC-3); FABP3 as analyte 0.5-32 µM; 25 °C; PBS with 0.05% Tween-20, pH 7.4; steady state affinity fit of reference-subtracted sensorgrams; mean of three experiments. In general terms: SPR reads the build-up and loss of mass on a sensor chip optically.

Take “recombinant N-terminal His6-tagged human FABP3 (natural protein)”: the Kd is 16.7 µM. In other words, the double-digit micromolar range.
